{"source": "patent US20030049644", "target": "Hepatocyte growth factor/scatter factor (HGF) (UniProt P14210+P14210)", "sequence (P14210 32-494, chain 1 of 2)": "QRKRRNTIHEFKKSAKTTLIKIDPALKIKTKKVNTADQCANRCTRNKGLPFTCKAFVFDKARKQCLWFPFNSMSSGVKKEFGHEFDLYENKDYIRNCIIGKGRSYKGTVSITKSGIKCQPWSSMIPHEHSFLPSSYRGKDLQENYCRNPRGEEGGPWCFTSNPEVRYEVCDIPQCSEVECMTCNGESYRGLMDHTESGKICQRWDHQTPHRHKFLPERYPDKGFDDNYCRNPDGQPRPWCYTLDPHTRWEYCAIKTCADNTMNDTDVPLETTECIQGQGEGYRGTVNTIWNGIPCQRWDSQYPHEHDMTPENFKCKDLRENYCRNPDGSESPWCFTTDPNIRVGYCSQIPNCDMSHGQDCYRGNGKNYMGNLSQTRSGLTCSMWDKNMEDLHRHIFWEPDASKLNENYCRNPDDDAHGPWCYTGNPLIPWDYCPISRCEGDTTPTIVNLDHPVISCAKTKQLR", "sequence (P14210 495-728, chain 2 of 2)": "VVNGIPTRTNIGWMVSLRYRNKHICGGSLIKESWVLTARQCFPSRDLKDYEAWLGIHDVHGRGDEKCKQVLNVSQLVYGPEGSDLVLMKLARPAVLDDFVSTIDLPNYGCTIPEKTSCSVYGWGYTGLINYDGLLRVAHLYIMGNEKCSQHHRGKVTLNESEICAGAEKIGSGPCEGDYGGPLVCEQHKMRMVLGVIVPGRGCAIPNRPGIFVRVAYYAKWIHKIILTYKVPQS", "experiment": "FP", "details": "2'-F pyrimidines"}
{"sequence": "GAGAGNUCCUAUUUAUGACAUCCCAUGCCCCCA [Tr65]", "values": [{"measurement": "Kd", "value": 1.4, "unit": "nM"}]}
